The results in this text go back to patent US5541071 (New England Medical Center Hospitals, Inc., dated 1996).

Assay [1] concerns the target T1, canine parietal cell gastrin receptor (recombinant, expressed from clone GR-1 in COS-7 cells) (canine).
T1 chain: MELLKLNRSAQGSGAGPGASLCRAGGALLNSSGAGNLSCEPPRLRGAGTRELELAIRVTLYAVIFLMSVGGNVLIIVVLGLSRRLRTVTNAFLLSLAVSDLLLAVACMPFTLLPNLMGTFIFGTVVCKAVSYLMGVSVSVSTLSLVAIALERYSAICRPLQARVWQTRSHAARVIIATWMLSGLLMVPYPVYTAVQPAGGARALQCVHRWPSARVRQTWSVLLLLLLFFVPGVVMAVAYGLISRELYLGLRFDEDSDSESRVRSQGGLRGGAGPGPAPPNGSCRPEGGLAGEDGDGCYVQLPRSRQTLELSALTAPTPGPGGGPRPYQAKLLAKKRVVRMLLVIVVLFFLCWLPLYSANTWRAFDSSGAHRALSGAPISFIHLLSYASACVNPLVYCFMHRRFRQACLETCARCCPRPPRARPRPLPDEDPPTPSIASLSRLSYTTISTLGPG
Put plainly: radioligand saturation binding, 2.5 to 1,000 pM 125I-CCK-8, GR-1 transfected COS-7 cells.
Method: (§1) COS-7 cells (1.5 ×10^6) were plated in 10 cm culture dishes (Nunc) and grown in DMEM/10% fetal calf serum, 5% CO_2 at 37° C. […] Twenty-four hours following transfection, cells were split into 24-well dishes (Nunc), 5000 cells/well. […] Equilibrium binding occurred after incubation for 80 min at 37° C. Cell monolayers were subsequently washed three times and bound radioactivity was quantified after cell hydrolysis in 1N NaOH.

In assay [2] the target is T1, canine parietal cell gastrin receptor …. Nature of the assay: competition with 40 pM 125I-CCK-8 on intact GR-1 transfected COS-7 cells.
Method: as §1
Assay [3] shares this target. Put plainly: competition with 125I-CCK-8 on isolated membranes of GR-1 transfected COS-7 cells, filtration.
Method: Binding parameters were also measured in isolated plasma membranes from COS-7 cells transfected with GR-1. Binding was performed for 60 min at 22° C.
The target in assay [4] is canine parietal cell gastrin receptor (recombinant, expressed from clone GR-1 in COS-7 cells) (canine).
The target is the same in assay [5]. This is another data set of the same source.

Square brackets hold non-standard residues; d marks the D form. Ends that are not written are not given here. sY = N[C@@H](Cc1ccc(OS(=O)(=O)O)cc1)C(=O)O

Consider DYMGWMDF (ends and bridges not checked; also: 125I label, site not given here) [125I-CCK-8], for which, in assay [1], the Kd (commonly the constant that tells how readily two partners part at equilibrium) amounted to 0.08 nM.

As for D[sY]MGWMDF-NH2 [CCK-8 (unlabeled)], the IC50 (usually the concentration that inhibits the measured activity by half) in assay [2] is 0.09 nM; in assay [3], 0.08 nM.

Regarding QGPWLEEEEEAYGWMDF-NH2 (ends and bridges not checked) [gastrin I], the free cytosolic calcium, [Ca2+] (fura-2 fluorescence) in assay [4] was found to be 142 nM. For the same molecule, the phosphoinositide metabolites (Ins-1,4,5-P3, Ins-1,3,4,5-P4) by HPLC (% over control) in assay [5] was determined as 741. For the same molecule, the figures for the IC50 in assay [2] and in assay [3] were 0.26 nM and 0.4 nM, respectively.

Regarding DYMGWMDF-NH2 [CCK-8-desulfate], the IC50 in assay [3] is 1.5 nM.
